Test system: O=NO
Test: purified protein
Conditions: 50 mM potassium phosphate pH 7.0, 4 °C, anaerobic, nitrite up to 50 mM

AxNiR (AxCuNiR) (Achromobacter xylosoxidans; F330C)
Km: 1200 ± 100 µM | kcat: 310 s⁻¹ | kcat/Km: 260000 M⁻¹ s⁻¹

From publication PMC4104443
